Test results reported in the supplement of paper PMC9170038.

Tested on: MS2 coat protein
Assay: apparent KD of MS2 coat protein; designed switch direction (-1 OFF switch, 1 ON switch): -1; higher = weaker reporter binding
Method in brief: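 Each step of the titration lasted 0.8–1.5 h at the lowest concentration and 10–20 min at the highest. The protein, SNAP-549-labelled MS2 coat protein, went from 0.7 or 1.5 nM doubling to 3 µM over RNA switches transcribed on Illumina chips by stalled E. coli RNA polymerase. Normalised cluster fluorescence was curve-fitted, and the per-design median over clusters is given as apparent KD.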

[1] = Eterna round: R95, input ligand: FMN 200 uM
[2] = Eterna round: R95, input ligand: microRNA oligo, concentration not stated
[3] = Eterna round: R95, input ligand: none
[4] = input ligand: microRNA oligo, concentration not stated

GGUAGUAUGAGUAGUCCUCAUUGAAGAGAGUGGUAAGAAACAUGAGGAUCACCCAUGUAAGAACAAGCUUUUGCUCA [JR_Sv3TOV2_Sub005] (puzzle: Sensor v3, turn-off variant 2)
apparent KD of MS2 coat protein [1]: 191 nM | apparent KD of MS2 coat protein [2]: 15.9 nM | apparent KD of MS2 coat protein [3]: 266 nM

GGUAUACAUGAGGAUCACCCAUGUCAGGAUAUGGAAACAUAUGCCGAAAGGCAUAUGGCCAGAAGGGACAAUAG [AK-MS2ROC-r4-exclusion1-5.1] (Eterna round: R97, puzzle: Exclusion 1)
apparent KD of MS2 coat protein (input ligand: FMN 200 uM): 117 nM | apparent KD of MS2 coat protein (input ligand: none): 77.5 nM

GGUCAAGAACAGCUCCGCGCUGUCCUUGACCGCUCAUUUACAUGAGGAUCACCCAUGUUUUUUGCUUGUCUUGUUUC [Estetexequ] (puzzle: Sensor v3, turn-off variant 2)
apparent KD of MS2 coat protein [1]: 21 nM | apparent KD of MS2 coat protein [2]: 98.7 nM | apparent KD of MS2 coat protein [3]: 23.8 nM

GGUCAAGGACAGAUCCGCGCUGCCCUUGACCGCUCAUUUACAUGAGGAUCACCCAUGUUUUUUGCUUGUCUUGUUAC [Erbete] (puzzle: Sensor v3, turn-off variant 2)
apparent KD of MS2 coat protein [1]: 16.2 nM | apparent KD of MS2 coat protein [2]: 94 nM | apparent KD of MS2 coat protein [3]: 18.1 nM

GGUCAGACGGUAGGAUAUCCAUAUCGAGUGACCCUUUCAUAACAUGAGGAUCACCCAUGUCGGUGGGAGAAGGGCUGUACGGCG [salish99_ExNG02_R04_002] (Eterna round: R96, puzzle: Exclusion NG 2)
apparent KD of MS2 coat protein (input ligand: FMN 200 uM): 45.8 nM | apparent KD of MS2 coat protein [4]: 22.6 nM | apparent KD of MS2 coat protein (input ligand: none): 35.6 nM

GGUCCUUCUGUCAGGAUAUCCAGUAUCAGACAGCAGGAGAAGGGACAUGAGGAUCACCCAUGUAAUAAGAAGAA [Onrean] (Eterna round: R97, puzzle: Brourd's mod of Exclusion 4)
apparent KD of MS2 coat protein (input ligand: FMN 200 uM): 51.9 nM | apparent KD of MS2 coat protein (input ligand: none): 27.6 nM

GGUCGACAUGAGGAUCACCCAUGUCAGGAUAUCGUCACUGGAGCUGCGGCUCCAGUGACGAGAAGGGAUAUAAU [E1/15-A3] (Eterna round: R97, puzzle: Exclusion 1)
apparent KD of MS2 coat protein (input ligand: FMN 200 uM): 45.3 nM | apparent KD of MS2 coat protein (input ligand: none): 38.8 nM

GGUCUACAUGAGGAUCACCCAUGUAAGGAUAUCGUCACUGGAGCUGCGGCUCCAGUGACGAGAAGGUACGUAAU [E1/12-A3] (Eterna round: R97, puzzle: Exclusion 1)
apparent KD of MS2 coat protein (input ligand: FMN 200 uM): 33.7 nM | apparent KD of MS2 coat protein (input ligand: none): 32.4 nM

GGUCUACAUGAGGAUCACCCAUGUAAGGAUAUCGUCACUGGAGCUGCGGCUCCAGUGACGAGAAGGUGCAUAAU [E1/11-A3] (Eterna round: R97, puzzle: Exclusion 1)
apparent KD of MS2 coat protein (input ligand: FMN 200 uM): 39.4 nM | apparent KD of MS2 coat protein (input ligand: none): 30.8 nM

GGUCUGCGAGGAUAUACAUGAGGAUCACCCAUGUGAGAGAUACUAGUGAGGUCGAUUGGUAGAAGGCGCGGACG [JL-ex3-2.03 salish99 mod] (puzzle: Exclusion 3)
apparent KD of MS2 coat protein [1]: 13.1 nM | apparent KD of MS2 coat protein [2]: 124 nM | apparent KD of MS2 coat protein [3]: 115 nM

GGUCUGCGAGGAUAUACAUGAGGAUCACCCAUGUGCGAGAUACUAGUGAGGUCGAUUGGUAGAAGGCGCGGACG [JL-ex3-2.06 salish99 mod] (puzzle: Exclusion 3)
apparent KD of MS2 coat protein [1]: 182 nM | apparent KD of MS2 coat protein [2]: 86.4 nM | apparent KD of MS2 coat protein [3]: 88.8 nM

GGUCUGCGAGGAUAUACAUGAGGAUCACCCAUGUGCGAGAUACUAGUGAGGUCGGUUGGUAGAAGGCGCGGACG [JL-ex3-2.07 salish99 mod] (puzzle: Exclusion 3)
apparent KD of MS2 coat protein [1]: 58.8 nM | apparent KD of MS2 coat protein [2]: 37.1 nM | apparent KD of MS2 coat protein [3]: 55.6 nM

GGUGAAGCAGGAUAUGUAUCGAUAUACAUGAGGAUCACCCAUGUCAUGUACAAAUUGCAUAUAGAAGGGCUUCACC [Exclusion 5 (FMN-MS2 slide v.4)] (Eterna round: R97, puzzle: Exclusion 5)
apparent KD of MS2 coat protein (input ligand: FMN 200 uM): 168 nM | apparent KD of MS2 coat protein (input ligand: none): 47.4 nM

GGUGCCCGACAAGGAUAUAAGAUACAGAAAACCUUAGAAGGUGUCACAUGAGGAUCACCCAUGUGGUCCGGCACCAAUAACUCC [Inedraor] (Eterna round: R96, puzzle: Exclusion NG 1)
apparent KD of MS2 coat protein (input ligand: FMN 200 uM): 58.9 nM | apparent KD of MS2 coat protein [4]: 18.1 nM | apparent KD of MS2 coat protein (input ligand: none): 41.9 nM

GGUGCGUAUGUGAGGAUAUGCUGGUCCUUGGAUCAGCAGAAGGCACAUGAGGAUCACCCAUGUGGUGUCGUACC [JL bmx4 3.46] (puzzle: Brourd's mod of Exclusion 4)
apparent KD of MS2 coat protein [2]: 149 nM

GGUGCGUAUGUGAGGAUAUGCUGGUCCUUGGAUCGGCAGAAGGCACAUGAGGAUCACCCAUGUGGUGUCGUACG [salish99_Bmod_ex4_078] (puzzle: Brourd's mod of Exclusion 4)
apparent KD of MS2 coat protein [2]: 51.8 nM

GGUGCGUAUGUGAGGAUAUGCUGGUCCUUGGCUCGGCAGAAGGCACAUGAGGAUCACCCAUGUGGUGUCGUACC [salish99_Bmod_ex4_054] (puzzle: Brourd's mod of Exclusion 4)
apparent KD of MS2 coat protein [2]: 141 nM

GGUGCGUAUGUGAGGAUAUGCUGGUCCUUGGGUCAGCAGAAGGCACAUGAGGAUCACCCAUGUGGUGUCGUACC [salish99_Bmod_Ex4_026] (puzzle: Brourd's mod of Exclusion 4)
apparent KD of MS2 coat protein [1]: 20.3 nM | apparent KD of MS2 coat protein [2]: 345 nM | apparent KD of MS2 coat protein [3]: 344 nM

GGUGCGUUUGUGAGGAUAUGCUGGUCCUUGGUUCAGCAGAAGGCACAUGAGGAUCACCCAUGUGGUGUCGUACC [salish99_Bmod_Ex4_031] (puzzle: Brourd's mod of Exclusion 4)
apparent KD of MS2 coat protein [2]: 145 nM

GGUGCUGGCGCGUCGGUGUUGGUGCAAUAAGCUUGUGAAACAUGAGGAUCACCCAUGUCCUCGUGGGCUCGUCUUGU [salish99_TOv2_r2_090] (puzzle: Sensor v3, turn-off variant 2)
apparent KD of MS2 coat protein [1]: 480 nM | apparent KD of MS2 coat protein [2]: 12.5 nM | apparent KD of MS2 coat protein [3]: 434 nM

GGUGGACAUGAGGAUCACCCAUGUGAGGAUAUCGGCUGGCUAGCGGCGGACGGCUUCUCGAGAAGGCGCAUUGU [Exclusion 1 V83] (Eterna round: R96, puzzle: Exclusion 1)
apparent KD of MS2 coat protein (input ligand: FMN 200 uM): 68.8 nM | apparent KD of MS2 coat protein [4]: 42.2 nM | apparent KD of MS2 coat protein (input ligand: none): 64.5 nM

GGUGGACAUGAGGAUCACCCAUGUGAGGAUAUCGGCUGGCUAGCGGCGGACGGCUUCUCGAGAAGGCGCAUUGU [Exclusion 1 V83] (puzzle: Exclusion 1)
apparent KD of MS2 coat protein [2]: 46.3 nM

GGUGGACAUGAGGAUCACCCAUGUGAGGAUAUCGGCUGGUACGUGUUGGCUGGCUUCUCGAGAAGGCACAUAGU [Exclusion 1 V65] (puzzle: Exclusion 1)
apparent KD of MS2 coat protein [2]: 45.9 nM

GGUGGCUACGUGAGACAUGAGGAUCACCCAUGUUACCGAACGAAGGAUAUAGAAGCACAUAGCUACUAGAAGGUUGAAAAGAAA [Laeratveti] (Eterna round: R96, puzzle: Exclusion NG 3)
apparent KD of MS2 coat protein (input ligand: FMN 200 uM): 22.6 nM | apparent KD of MS2 coat protein [4]: 24.1 nM | apparent KD of MS2 coat protein (input ligand: none): 29.9 nM

GGUUCGAGUGUGAGGAUAUGCUGGUCCUUGGAUCAGCAGAAGGCACAUGAGGAUCACCCAUGUGGUAACGGACC [Mat - Exclusion 4 - Eli Mod - D35] (Eterna round: R97, puzzle: Brourd's mod of Exclusion 4)
apparent KD of MS2 coat protein (input ligand: FMN 200 uM): 263 nM | apparent KD of MS2 coat protein (input ligand: none): 331 nM

GGUUGGCGAGGAUAUACAUGAGGAUCACCCAUGUGAGAAUUAAAAGUGAGGAAGAAAAGUAGAAGGCGCUGACG [Mat - Exclusion 3 - Mod of Salish D4] (puzzle: Exclusion 3)
apparent KD of MS2 coat protein [1]: 304 nM | apparent KD of MS2 coat protein [2]: 36.1 nM | apparent KD of MS2 coat protein [3]: 384 nM

GGUUGGCGAGGAUAUACAUGAGGAUCACCCAUGUGAGAGAAUAAAGUGAGAAAGAAAAGUAGAAGGCGCUGACA [Mat - Exclusion 3 - Mod of Salish D51] (puzzle: Exclusion 3)
apparent KD of MS2 coat protein [1]: 900 nM | apparent KD of MS2 coat protein [2]: 46.9 nM | apparent KD of MS2 coat protein [3]: 63.9 nM

GGUUGUUGUUUCCGUUCUUACAUGAGGAUCACCCAUGUUUCUUGUCGUGCUCGCGUUGCUCGUCUGGCUGUCUGUUG [salish99_TOv1_r3_071] (puzzle: Sensor v3, turn-off variant 1)
apparent KD of MS2 coat protein [1]: 52.3 nM | apparent KD of MS2 coat protein [2]: 40.2 nM | apparent KD of MS2 coat protein [3]: 67.7 nM

GGUUUGGGAGGAUAUGGUUUGAAUAACAUGAGGAUCACCCAUGUAAAUAGAUCUUCCGGGCCAGAAGGCUCGGGCC [-23.9, -21.52 kcal, A 26%] (Eterna round: R97, puzzle: Exclusion 5)
apparent KD of MS2 coat protein (input ligand: FMN 200 uM): 29.5 nM | apparent KD of MS2 coat protein (input ligand: none): 34.6 nM

GGUUUUUUUUUCCUUUCUUACAUGAGGAUCACCCAUGUUUCUUGUCGUGCUCGCGUUGCUCGUCUGUCUGUCUGUUG [salish99_TOv1_r3_075(!)] (puzzle: Sensor v3, turn-off variant 1)
apparent KD of MS2 coat protein [1]: 49.7 nM | apparent KD of MS2 coat protein [2]: 41 nM | apparent KD of MS2 coat protein [3]: 56.2 nM

GUAAACCGGUGAGGAUAUUUAUAAUAGAGCUUUAUGAUAUACAUGAGGAUCACCCAUGUUACUUUAAAGAAGGCAUCGGAAAUG [Mat - Exclusion NG 2 - Mod of JL - D95] (Eterna round: R96, puzzle: Exclusion NG 2)
apparent KD of MS2 coat protein [4]: 15.5 nM

GUAAACGCAGAGGAUAUAUCAGAUCAAAGCUGCAUAGAAGGCUGCACAUGAGGAUCACCCAUGUGGUCUUCAAG [Mat - Exclusion 6 - JL Mod - D7] (Eterna round: R97, puzzle: Exclusion 6)
apparent KD of MS2 coat protein (input ligand: FMN 200 uM): 230 nM | apparent KD of MS2 coat protein (input ligand: none): 31.2 nM

GUAAAGGUAGGAUAUACGAAGAAAAAGGGUAGAAGAAAAACACAUGAGGAUCACCCAUGUAGAAGGACCAAAUG [Mat - Exclusion 2 - Mod of my Tesla design - D3] (puzzle: Exclusion 2)
apparent KD of MS2 coat protein [1]: 77.6 nM | apparent KD of MS2 coat protein [2]: 28.6 nM | apparent KD of MS2 coat protein [3]: 34 nM

GUAAAGUGAGGAUAUGGUAAAUUAAUUAUUAAUUAAUUAAUCCAGAAGGCACAUGAGGAUCACCCAUGUUAAUG [Mat - Exclusion 4 - D89] (puzzle: Exclusion 4)
apparent KD of MS2 coat protein [1]: 50.9 nM | apparent KD of MS2 coat protein [2]: 28.6 nM | apparent KD of MS2 coat protein [3]: 34.5 nM
